Earlier results in patent publication US20250319161A1, “IMPROVED METHODS OF TREATING DISEASES RESULTING FROM A MALADAPTED STRESS RESPONSE” (priority 2021, published 2025).
Ends that are not written are not given here.

Assays:
CRFR2 [1] = target: T1, CRFR2 (Homo sapiens, UniProt Q13324); conditions: read-out: inhibitory constant at CRFR2
T1 sequence (Q13324 1-411): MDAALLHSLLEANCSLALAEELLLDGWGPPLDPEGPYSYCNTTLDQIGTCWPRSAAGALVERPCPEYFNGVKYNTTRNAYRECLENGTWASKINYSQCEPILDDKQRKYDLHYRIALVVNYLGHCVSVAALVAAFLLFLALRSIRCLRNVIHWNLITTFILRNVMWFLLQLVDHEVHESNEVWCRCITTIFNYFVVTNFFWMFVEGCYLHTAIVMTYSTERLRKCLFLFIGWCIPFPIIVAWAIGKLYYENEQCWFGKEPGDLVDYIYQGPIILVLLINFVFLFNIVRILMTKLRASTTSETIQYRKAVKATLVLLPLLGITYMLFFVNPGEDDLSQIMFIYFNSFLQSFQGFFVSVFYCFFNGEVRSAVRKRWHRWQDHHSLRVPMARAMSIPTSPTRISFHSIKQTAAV

CRFR2 [2] = target: T1, CRFR2; conditions: in vitro
CRFR2 [3] = target: T1, CRFR2; conditions: in vitro; remark: listed apart in the source

Substance | Ki (CRFR2 [1]) | EC50 (CRFR2 [2]) | concentration achieving maximal CRFR2 endocytosis (CRFR2 [3])
endogenous urocortin 1, DNPSLSIDLTFHLLRTLLELARTQSQRERAEQNRIIFDSV-NH2 (DNPSLSIDLTFHLLRTLLELARTQSQRERAEQNRIIFDSV-NH2; UniProt P55089 83-122, looked up) [UCN1] | 0.4 nM | – | –
endogenous urocortin 2, IVLSLDVPIG LLQILLEQAR ARAARBQATT NARILARV-NH2 [UCN2] | 1.1 nM | 4.3 nM | 100 nmol
